Measured values published in a protein production outcome set (Wang et al. 2014).

Experiment: label from the status in PepcDB records
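Also: failed if final PepcDB status was selected cloned or expressed and not failed if soluble or beyond.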

Which protein production does the source give for “EPPKLVNDKPHKFKDHFFKKPKFCDVCARMIVLNNKFGLRCKNCKTNIHEHCQSYVEMQRC” here?
Its protein production is “not failed”.

Which protein production does the source give for “MDKKPLNTLISATGLWMSRTGTIHKIKHHEVSRSKIYIEMACGDHLVVNNSRSSRTARALRHHKYRKTCKRCRVSDEDLNKFLTKANEDQTSVKVKVVSAPTRTKKAMPKSVARAPKPLENTEAAQAQPSGSKFSPAIPVSTQESVSVPASVSTSISSISTGATASALVKGNTNPITSMSAPVQASAPALTKSQTDRLEVLLNPKDEISLNSGKPFRELESELLSRRKKDLQQIYAEERENYLGKLEREITRFFVDRGFLEIKSPILIPLEYIERMGIDNDTELSKQIFRVDKNFCLRPMLAPNLYNYLRKLDRALPDPIKIFEIGPCYRKESDGKEHLEEFTMLNFCQMGSGCTRENLESIITDFLNHLGIDFKIVGDSCMVYGDTLDVMHGDLELSSAVVGPIPLDREWGIDKPWIGAGFGLERLLKVKHDFKNIKRAARSESYYNGISTNL” here?
Its protein production is “not failed”.

For “MADEMMVKELEEVVVRFSGDSGDGMQLAGNIFSNVSATVGNDICTFPDYPADIRAPQGSLTGVSGFQVHVGASKIFTPGDHCHVLVAMNPAALKTQIKFCKPQGLVITDSDSFGEKDLEKAQFKTGNPFEEMGITQQVLEVPISSMCKESLKNSGLDNKAMLRCKNMFALGLVCWLFNRNLSAAEKMLNEKFAKKPEIAAANIKVLNDGYNYGANTHASTSTYKIESKTPKAAGLYTDINGNKATSYGLIAAAEKAGLELYLGSYPITPATDILHELAKHKSLGVKTVQCEDEIAGCASAVGAAFAGDLAVTTTSGPGVCLKSEAMNLAVIAELPLVVVNVQRGGPSTGMPTKSEQTDLLQALYGRNGESPMPVIAATSPTNCFDAAYMAAKIALEHMTPVVLLTDAFIANGSAAWKLPNMDEYPAINPPYVTPDMIGTWTPFQRNEKTGVRYWAVPGTEGFMHRIGGLEKSSETGVISTEPENHQKMTLLRQAKVDKIADSIPEQEVQGDADADLLVVGWGGTYGHLYSAVEHMRKNGKKVALAHFQYINPLPKNTAEILKKYKKIVVAEQNLGQFAGYLRMKVPGLNISQFNQVKGQPFVTRELVEAFTKLLEE”, which protein production is on record?
Its protein production is “not failed”.

With “MVRRRQTSETGLLRQLPLALLIWGLFSLMMWVPAVYALTLNDHPTSRSFFYAGILGLVVVTTISLARAGRPSRHGLLGQLAVLLSTFAVLPLFLAVPFHDALKTTSFLNAYFEMVSAITTTGAEMFPDPGRLSAPLHLWRAQVGWLGGLVMWIAASAILAPLSLGGFEVTAQGQPGRVLVGQGESVDPRGRLLRVAATLAPVYAGLTLVVAILLLAAGDSGLVAICHAMSVMATSGISPVGGLSGGASGLTGEAILFLFMFFALSRLTFSSDTAMRGHARLDQDPEFRIGLLILLGVPALLFLRHWSGAIDIASGENLTLALRALWGSLFTVMSFLSTTGFESTDWAEARQWSGLGTPGMILLGLSVIGGGVATTAGGVKLLRVYALYLNGTRELQRLVHPSSVSSATGRNRRIQRGGAFIAWVFFMLFAISLAAIALALAAAGSDFETAMVLSIATLSTTGPLIEIGAQEPIRLIEMPAAAKLILSGAMIIGRLETLAFIALITPALWRN” as the sequence, how does the protein production read?
Its protein production is “failed”.

Which protein production does the source give for “MSLRPQTSFIFDLDGTLTDSVYQNVAAWKEALDAENIPLAMWRIHRKIGMSGGLMLKSLSRETGMSITDEQAERLSEKHAQAYERLQHQIIALPGAVELLETLDKENLKWCIATSGGIDTATINLKALKLDINKINIVTRDDVSYGKPDPDLFLAAAKKIGAPIDECLVIGDAIWDMLAARRCKATGVGLLSGGYDIGELERAGALRVYEDPLDLLNHLDEIASREGHHHHHH” here?
The protein production was “not failed”.

For “MSEGTLFVFTCDRPNGSSVIMCPGGGFLKTNLENEGIDFAEWFTKLGITYIVFKYRMPHGNPDVPEQDTRLALKVVREKFPEFCDKLGVMGASIGGYLATFSATLLPDDEKPDFQILMYPVVSVDDRLTHFPCRERMFGHSYSPDKMEQYSPIEHITSGTPAAFIVAAADDAVVSPLNGIMYAARLQKADIPISLHIYPAGGHGFGYNDSFVYKQEWLQELGEWLAKLLEHHHHHH”, which protein production is on record?
Its protein production is “failed”.

With “MTDIPAPAPAAEFWEARYRDTGRVWSGRPNELLVQEAGGLAPGTALDLGCGEGADAVWLASRGWRVTGVDISATALERAAGHADGAGVGDRVLWERHELGPSFPEGSFDLVSAHYLQSPVALDQQAVLRAAARAVAPGGTLLVVMHAGWPSWQTEPPFDAAFPTLDGVLAELALPEGEWSVETRRTARRPSVAPDGTEGFREDHVWRLKRAVFVE” as the sequence, how does the protein production read?
Its protein production is “failed”.

With “MEKKLKRRESMSTTAAESPPAKRRRTVTGNENSALIEGLPDHISEICLSLVHRPSLLSAVCTRWRRLLYSPEFPSFPSLYALFVDSTSDTGRVNPSVRFMCFNPVSSKWYPLPPPPPDPPLHRILYRHPSFISFNLPIQCVSAAGKLILIAGSNQQLSPAISHPLIFDPISSSWSSGPRIGSPRRWCATGACDGAIYIASGISSQFSSTVAKSVEKLDLTEQNRNNHRFNWEKLRDMRDLRFSREAIDAVGYRRKLLMVNVKGDAVKEGAIYDVVKDDWEPMPEEMLVGWRGPVAAMEEEILYSVDERRGTVRKYDDEKREWREVVVVEGGEEMLKGATQVTADSGKLCVVTGDGKIVVVDVAAEPAKIWNVEIPDGLEPVSVHVLPRMSQPNFC” as the sequence, how does the protein production read?
Its protein production is “failed”.

For “QNKKSGNPILPGFHADPEVLYSHQTKRYYIYPTSDGFPGWGGSYFKVFSSKNLKTWKEETVILEMGKNVSWANGNAWAPCIEEKKIDGKYKYFFYYSANPTTNKGKQIGVAVADSPTGPFTDLGKPIITSSPTGRGQQIDVDVFTDPVSGKSYLYWGNGYMAGAELNDDMLSIKEETTVVLTPKGGTLQTYAYREAPYVIYRKGIYYFFWSVDDTGSPNYHVVYGTAQSPLGPIEVAKEPIVLIQNPKEEIYGPAHNSILQVPGKDKWYIVYHRINKNHLNDGPGWHREVCIDRMEFNPDGTIKQVIPTP”, which protein production is on record?
Its protein production is “not failed”.

With “MKILVFGGTRFFGKKLVERLVSEGHDVTIGTRGKTEDNFGDTVKRVVLNRESRDALFQLAKEDWDVIYDNICFSPKEALYAVDAFKGKVKRYIYTSSLSVYSQKGRALVEADFNPEHYEIVIGDKEDFDYGEGKRLAEAVFFQKASFPVVAVRFPIVLGLDDYTKRLHFHINHIKNHQEIGISNGQAEIGFITSDEAAHFLEWVGVESDLTGPVNATSNGTYALNGFIKMLEEKIGELALVEEVTDDVDDSPFGIEKTYYLDNAKATEAGFVFNDLKVWLPALVTDILKENLEHHHHHH” as the sequence, how does the protein production read?
The protein production was “failed”.

For “MQLQTEVKKQPSKRKFKMPDAYVLLFFIALLCAIATYFVPAGEFKRVTNRTVTTTIPGSYHSVPQSPVGFVSFFTAIEKGMTLAAPIIFLILFTGGAIAILEKTGALDGLIYHVINKFRNQQFLFICIVAALFSILGTTGIIVNSVIGFIPIGIIVARTLKWDAIVGVAIIYLGTYAGFNATILSPSPLGISQKIAELPMFSGIGLRTAIYLSFLLATILYINWYVKRLKKSNKGSILGDNWFPSNALSSGKEAQKTEVPWTIRHKLILLVSALSLITFLIGAFRLHWTDAEMTATFIFIAITAGIIGGMKANDIASTFLAGCQNLIYGALIVGMARCISVILEQGKLLDTIVNQLAQSLEGQSPVFGVIGMYVSSAALHFLISSGTGESVIFIPILAPLADFMHITRQVTVQAVMLGEGVVNCLNPTSGVLMGVLAASGISYGKWIRFMAPLAFIWFIIGLIFLIVGVNIEWGPY”, which protein production is on record?
The protein production was “failed”.

With “MKTLFWRTLVVIFIILGVIGAILPGMPTTVFLILAAWAASKGWPEMDEWLLNHPKYGPTLRDWRAHGTVPRKAKWIASIMMLISAIMMLFTNAPFWVKVFTDTTMLIVAIWLWLRPEPVKLPLESPTLHQNTEDEHV” as the sequence, how does the protein production read?
Its protein production is “failed”.

With “MNTKNLVFVALFSSIMGVLGLIPPIALSITPVPITLQSLGVMLAGGLLGSRLGALSQLIFLLIVGVGAPLLAGGRGGLGVFVGPSAGYLLGYIIGAFVIGYLIERLREVSIIKVLCINIIGGIFVVYVFGITVQAFLMDVSVWETMKVSAVFLPGDCIKAIIAAVLVTKLHRSLKHIITPALKNGKYTNAG” as the sequence, how does the protein production read?
Its protein production is “failed”.
